Measured values: US20250011363A1, “OPTIMIZED SHORTENED PEPTIDE THAT BINDS TO ACETYLCHOLINE RECEPTOR, AND USE THEREOF” (SKINMED CO., LTD., priority 2021, published 2025)

molecular target: acetylcholine receptor; assay: SPR, AchR immobilized on CM5 chip, peptide 10 µM

| Binder | Binding affinity (RU) |
| --- | --- |
| KWQYKK [6mer-2-206] | 148 |
| KWVSKR [6mer-2-207] | 153 |
| RGVSKR [6mer-2-219] | 153 |
| RWRSRK [6mer-2-214] | 139 |
| KGVSKK [6mer-2-218] | 147 |
| KLFQKK [6mer-2-217] | 135 |
| KVYSKR [6mer-2-220] | 135 |
| KQVRKK [6mer-2-221] | 153 |
| RLYYRR [6mer-2-215] | 123 |
| RGLSRR [6mer-2-211] | 135 |
| KWQLRR [6mer-2-212] | 148 |
| KSFQRK [6mer-2-205] | 147 |
| RLIYKK [6mer-2-202] | 122 |
| KGILKK [6mer-2-216] | 126 |
| RSQQRK [6mer-2-208] | 128 |
| RLYYRK [6mer-2-209] | 148 |
| KSRTKR [6mer-2-203] | 135 |
| KSILRR [6mer-2-213] | 142 |
| RSQSRR [6mer-2-210] | 128 |
| RRVQKR [6mer-2-204] | 142 |
| RVVYRK [6mer-2-222] | 127 |

The next lines start with the values.

| Binding affinity (RU) | Binder |
| --- | --- |
| 145 | KRRRKK [6mer-2-250] |
| 145 | KRLLRR [6mer-2-225] |
| 141 | KGQCKK [6mer-2-228] |
| 131 | RWQTKK [6mer-2-266] |
| 142 | RRRRRK [6mer-2-238] |
| 142 | KSQQKR [6mer-2-256] |
| 123 | RLVYKR [6mer-2-237] |
| 142 | KQLTRR [6mer-2-223] |
| 125 | KRIYRR [6mer-2-258] |
| 144 | KGISKK [6mer-2-231] |
| 154 | RSYTRR [6mer-2-248] |
| 127 | RWQSKK [6mer-2-229] |
| 135 | RWIQRR [6mer-2-230] |
| 123 | KWISKK [6mer-2-246] |
| 154 | RLLCKR [6mer-2-226] |
| 148 | RLFLKR [6mer-2-224] |
| 142 | KSQTKR [6mer-2-251] |
| 135 | RSLSKR [6mer-2-245] |
| 145 | RRICKR [6mer-2-263] |
| 139 | RRFSKR [6mer-2-244] |
| 135 | RRQTRK [6mer-2-265] |
| 144 | KRFCRK [6mer-2-257] |
| 147 | KLQRRK [6mer-2-227] |

| Binding affinity (RU) | Binder |
| --- | --- |
| 125 | RGQYKK [6mer-2-239] |
| 128 | RVQSKR [6mer-2-259] |
| 142 | KWILKR [6mer-2-262] |
| 135 | KQLTKR [6mer-2-241] |
| 146 | KGYQKK [6mer-2-247] |
| 131 | KWQQKK [6mer-2-236] |
| 135 | KQFTRK [6mer-2-232] |
| 135 | KSQRRR [6mer-2-242] |
| 145 | KLRSRR [6mer-2-253] |
| 136 | KLVRKK [6mer-2-235] |
| 142 | RRRCRK [6mer-2-240] |
| 127 | KSQLKR [6mer-2-264] |
| 148 | KVFRKK [6mer-2-252] |
| 121 | RWYTKK [6mer-2-261] |
| 142 | RSQTKR [6mer-2-234] |
| 148 | KRVLKR [6mer-2-243] |
| 136 | RGLRKR [6mer-2-249] |
| 139 | RLRRKK [6mer-2-255] |
| 139 | RQICKK [6mer-2-268] |
| 142 | RRFCKR [6mer-2-260] |
| 141 | KLYSRR [6mer-2-267] |
| 148 | KRIQRR [6mer-2-254] |

molecular target: acetylcholine receptor; assay: SPR, peptide at 10 uM, AchR immobilized

| Binding affinity [RU] | Binder |
| --- | --- |
| 32 | KKDKPK [6mer-1-725] |
| 12 | RRNKVR [6mer-1-722] |
| 19 | KRPKNK [6mer-1-724] |
| 18 | RRIKAR [6mer-1-731] |
| 33 | RKMPAK [6mer-1-723] |
| 29 | RKANGK [6mer-1-727] |
| 26 | RRAAVR [6mer-1-732] |
| 22 | RKAMEK [6mer-1-721] |
| 13 | KRATFR [6mer-1-730] |
| 23 | RRDNAR [6mer-1-728] |
| 23 | KKKSGK [6mer-1-729] |
| 33 | KKHSMK [6mer-1-726] |
